Data taken from the supplement of paper PMC10065799, “High-throughput profiling of sequence recognition by tyrosine kinases and SH2 domains using bacterial peptide display” (eLife, 2023).

Columns and labels:
EPHB2 = EPHB2 (UniProt P29323); assay: phosphorylation enrichment, bacterial display (enrichment ratio); higher = better substrate or ligand; peptides without Tyr show the background
Fyn = Fyn (UniProt P06241); assay: as above
c-Abl (mouse) = assay: as above
Fer (mouse) = assay: as above
Jak2 = Jak2 (UniProt O60674); assay: as above
AncSZ = assay: as above
MERTK = MERTK (UniProt Q12866); assay: as above
Fes = Fes (UniProt P07332); assay: as above
Sequence of Fes (P07332 whole entry, looked up): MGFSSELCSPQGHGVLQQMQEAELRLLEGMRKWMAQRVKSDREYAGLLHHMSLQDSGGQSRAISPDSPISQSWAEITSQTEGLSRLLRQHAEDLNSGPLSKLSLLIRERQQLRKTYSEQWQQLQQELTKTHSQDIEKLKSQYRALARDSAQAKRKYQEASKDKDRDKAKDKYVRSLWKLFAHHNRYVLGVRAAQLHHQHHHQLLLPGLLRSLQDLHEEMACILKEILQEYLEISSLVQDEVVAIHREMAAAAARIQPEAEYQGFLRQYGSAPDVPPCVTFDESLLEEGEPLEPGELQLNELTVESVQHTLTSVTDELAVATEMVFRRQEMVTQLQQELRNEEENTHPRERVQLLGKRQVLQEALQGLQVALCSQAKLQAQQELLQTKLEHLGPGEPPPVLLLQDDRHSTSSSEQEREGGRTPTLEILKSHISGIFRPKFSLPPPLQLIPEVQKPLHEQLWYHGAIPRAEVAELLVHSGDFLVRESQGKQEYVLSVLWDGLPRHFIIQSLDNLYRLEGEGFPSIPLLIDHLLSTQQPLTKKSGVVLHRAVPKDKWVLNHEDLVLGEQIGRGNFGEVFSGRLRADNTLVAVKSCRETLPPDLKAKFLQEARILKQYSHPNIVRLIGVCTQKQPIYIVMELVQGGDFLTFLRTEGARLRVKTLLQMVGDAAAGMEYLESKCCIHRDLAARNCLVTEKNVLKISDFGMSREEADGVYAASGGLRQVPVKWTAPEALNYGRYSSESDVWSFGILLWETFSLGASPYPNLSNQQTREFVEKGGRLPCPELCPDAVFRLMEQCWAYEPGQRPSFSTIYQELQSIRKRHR

FGFR3 = FGFR3 (UniProt P22607); assay: as above
Sequence of FGFR3 (P22607 whole entry, looked up): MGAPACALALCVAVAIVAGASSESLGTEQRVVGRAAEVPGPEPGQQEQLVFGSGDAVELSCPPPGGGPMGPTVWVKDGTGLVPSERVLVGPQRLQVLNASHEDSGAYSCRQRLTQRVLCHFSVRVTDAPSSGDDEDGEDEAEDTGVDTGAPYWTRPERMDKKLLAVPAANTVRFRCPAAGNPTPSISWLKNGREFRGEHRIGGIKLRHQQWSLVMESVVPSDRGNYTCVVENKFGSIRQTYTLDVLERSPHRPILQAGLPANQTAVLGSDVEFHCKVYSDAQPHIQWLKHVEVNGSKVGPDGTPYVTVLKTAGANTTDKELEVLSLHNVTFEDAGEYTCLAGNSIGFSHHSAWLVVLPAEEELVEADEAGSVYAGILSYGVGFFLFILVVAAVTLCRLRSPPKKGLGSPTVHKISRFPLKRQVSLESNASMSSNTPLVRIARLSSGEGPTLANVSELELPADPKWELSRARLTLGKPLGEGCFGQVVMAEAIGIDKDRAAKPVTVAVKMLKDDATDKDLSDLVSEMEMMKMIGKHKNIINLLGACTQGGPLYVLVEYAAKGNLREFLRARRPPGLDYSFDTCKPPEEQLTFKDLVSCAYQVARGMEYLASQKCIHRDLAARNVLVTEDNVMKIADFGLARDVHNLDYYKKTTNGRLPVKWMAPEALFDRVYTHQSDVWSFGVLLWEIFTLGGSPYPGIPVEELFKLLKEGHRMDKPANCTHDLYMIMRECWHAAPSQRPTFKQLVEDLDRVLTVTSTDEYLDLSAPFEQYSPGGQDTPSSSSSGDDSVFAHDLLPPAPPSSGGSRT

c-Src = assay: as above
FGFR1 = FGFR1 (UniProt P11362); assay: as above
Hck = Hck (UniProt P08631); assay: as above
Sequence of Hck (P08631 whole entry, looked up): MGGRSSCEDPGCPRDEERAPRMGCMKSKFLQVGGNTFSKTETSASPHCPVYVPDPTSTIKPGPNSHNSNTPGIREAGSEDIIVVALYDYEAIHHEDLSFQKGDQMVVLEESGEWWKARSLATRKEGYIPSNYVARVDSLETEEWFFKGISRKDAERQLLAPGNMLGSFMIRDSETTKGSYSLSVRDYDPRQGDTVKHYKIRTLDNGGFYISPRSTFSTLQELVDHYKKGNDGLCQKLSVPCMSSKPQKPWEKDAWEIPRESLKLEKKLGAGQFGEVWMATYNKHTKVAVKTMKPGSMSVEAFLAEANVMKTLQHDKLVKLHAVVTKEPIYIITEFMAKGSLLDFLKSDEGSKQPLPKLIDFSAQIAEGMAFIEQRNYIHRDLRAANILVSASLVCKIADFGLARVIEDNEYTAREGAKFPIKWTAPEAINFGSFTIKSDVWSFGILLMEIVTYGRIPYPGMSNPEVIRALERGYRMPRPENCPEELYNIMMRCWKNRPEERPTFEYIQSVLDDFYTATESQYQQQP

EPHB1 = EPHB1 (UniProt P54762); assay: as above
Sequence of EPHB1 (P54762 whole entry, looked up): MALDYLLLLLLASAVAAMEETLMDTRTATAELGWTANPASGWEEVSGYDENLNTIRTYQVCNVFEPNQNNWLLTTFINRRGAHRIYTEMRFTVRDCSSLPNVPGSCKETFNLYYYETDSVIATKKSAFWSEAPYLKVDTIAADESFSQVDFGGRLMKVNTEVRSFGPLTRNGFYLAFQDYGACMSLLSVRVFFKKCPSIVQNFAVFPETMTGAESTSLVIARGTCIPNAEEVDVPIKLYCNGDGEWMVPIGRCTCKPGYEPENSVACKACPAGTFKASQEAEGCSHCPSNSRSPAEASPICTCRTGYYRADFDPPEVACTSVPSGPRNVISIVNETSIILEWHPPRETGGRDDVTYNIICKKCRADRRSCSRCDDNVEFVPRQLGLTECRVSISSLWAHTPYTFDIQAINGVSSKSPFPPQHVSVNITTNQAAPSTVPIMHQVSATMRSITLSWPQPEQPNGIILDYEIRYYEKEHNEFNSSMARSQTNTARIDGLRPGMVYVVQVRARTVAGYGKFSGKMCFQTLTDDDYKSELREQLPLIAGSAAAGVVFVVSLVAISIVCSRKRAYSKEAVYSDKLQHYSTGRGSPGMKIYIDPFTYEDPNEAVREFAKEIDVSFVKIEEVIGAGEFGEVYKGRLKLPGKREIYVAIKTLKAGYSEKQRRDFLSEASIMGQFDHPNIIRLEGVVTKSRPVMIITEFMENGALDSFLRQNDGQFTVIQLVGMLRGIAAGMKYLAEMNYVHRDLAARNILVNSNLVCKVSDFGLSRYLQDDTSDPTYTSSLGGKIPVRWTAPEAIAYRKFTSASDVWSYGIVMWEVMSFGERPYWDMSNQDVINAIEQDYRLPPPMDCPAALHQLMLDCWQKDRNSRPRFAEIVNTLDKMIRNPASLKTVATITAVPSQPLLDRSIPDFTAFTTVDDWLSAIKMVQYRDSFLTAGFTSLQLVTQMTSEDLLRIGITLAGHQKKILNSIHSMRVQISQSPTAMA

c-Src SH2 = assay: SH2 binding enrichment of the phosphorylated peptide, bacterial display (enrichment ratio); higher = better substrate or ligand; peptides without Tyr show the background
SHP2-C SH2 = assay: as above
Grb2 SH2 = Grb2 SH2 (UniProt P62993); assay: as above
Sequence of Grb2 SH2 (P62993 whole entry, looked up, the tested form may be a part): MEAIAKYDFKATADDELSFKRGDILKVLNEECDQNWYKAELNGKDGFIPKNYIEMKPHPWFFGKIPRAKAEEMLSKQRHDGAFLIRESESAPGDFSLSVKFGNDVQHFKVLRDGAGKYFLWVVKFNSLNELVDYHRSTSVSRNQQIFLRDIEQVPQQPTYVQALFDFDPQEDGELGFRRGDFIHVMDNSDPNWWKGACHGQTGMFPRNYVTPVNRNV
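For SH2 binding enrichment of the phosphorylated peptide, bacterial display in this document: peptide library displayed on the E. coli surface as eCPX fusions, selected cells deep-sequenced, score is each peptide's frequency after selection divided by its frequency in the input.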
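For phosphorylation enrichment, bacterial display in this document: 11-residue human phosphosite peptides and single-mutation variants displayed on the E. coli surface, counted by deep sequencing, each peptide's frequency after selection divided by its frequency in the unselected input library; frequency after pTyr selection over input frequency; kinase dosed for 20-30% of maximal phosphorylation in three min.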

Sequence of Fyn (P06241 whole entry, looked up): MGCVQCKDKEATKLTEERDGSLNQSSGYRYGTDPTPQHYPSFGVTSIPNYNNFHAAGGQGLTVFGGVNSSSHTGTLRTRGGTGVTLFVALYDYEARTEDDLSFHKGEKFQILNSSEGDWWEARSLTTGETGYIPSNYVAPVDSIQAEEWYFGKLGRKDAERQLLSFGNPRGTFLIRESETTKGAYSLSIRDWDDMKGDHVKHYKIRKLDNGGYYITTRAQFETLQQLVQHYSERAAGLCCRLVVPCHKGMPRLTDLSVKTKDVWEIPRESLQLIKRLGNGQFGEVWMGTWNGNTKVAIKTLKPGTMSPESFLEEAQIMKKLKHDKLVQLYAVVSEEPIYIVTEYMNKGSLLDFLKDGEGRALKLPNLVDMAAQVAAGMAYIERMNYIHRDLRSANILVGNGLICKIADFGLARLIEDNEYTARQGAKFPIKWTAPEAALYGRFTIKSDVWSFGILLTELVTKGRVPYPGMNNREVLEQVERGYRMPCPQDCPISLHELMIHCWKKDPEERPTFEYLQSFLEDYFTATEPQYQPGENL
Sequence of EPHB2 (P29323 whole entry, looked up): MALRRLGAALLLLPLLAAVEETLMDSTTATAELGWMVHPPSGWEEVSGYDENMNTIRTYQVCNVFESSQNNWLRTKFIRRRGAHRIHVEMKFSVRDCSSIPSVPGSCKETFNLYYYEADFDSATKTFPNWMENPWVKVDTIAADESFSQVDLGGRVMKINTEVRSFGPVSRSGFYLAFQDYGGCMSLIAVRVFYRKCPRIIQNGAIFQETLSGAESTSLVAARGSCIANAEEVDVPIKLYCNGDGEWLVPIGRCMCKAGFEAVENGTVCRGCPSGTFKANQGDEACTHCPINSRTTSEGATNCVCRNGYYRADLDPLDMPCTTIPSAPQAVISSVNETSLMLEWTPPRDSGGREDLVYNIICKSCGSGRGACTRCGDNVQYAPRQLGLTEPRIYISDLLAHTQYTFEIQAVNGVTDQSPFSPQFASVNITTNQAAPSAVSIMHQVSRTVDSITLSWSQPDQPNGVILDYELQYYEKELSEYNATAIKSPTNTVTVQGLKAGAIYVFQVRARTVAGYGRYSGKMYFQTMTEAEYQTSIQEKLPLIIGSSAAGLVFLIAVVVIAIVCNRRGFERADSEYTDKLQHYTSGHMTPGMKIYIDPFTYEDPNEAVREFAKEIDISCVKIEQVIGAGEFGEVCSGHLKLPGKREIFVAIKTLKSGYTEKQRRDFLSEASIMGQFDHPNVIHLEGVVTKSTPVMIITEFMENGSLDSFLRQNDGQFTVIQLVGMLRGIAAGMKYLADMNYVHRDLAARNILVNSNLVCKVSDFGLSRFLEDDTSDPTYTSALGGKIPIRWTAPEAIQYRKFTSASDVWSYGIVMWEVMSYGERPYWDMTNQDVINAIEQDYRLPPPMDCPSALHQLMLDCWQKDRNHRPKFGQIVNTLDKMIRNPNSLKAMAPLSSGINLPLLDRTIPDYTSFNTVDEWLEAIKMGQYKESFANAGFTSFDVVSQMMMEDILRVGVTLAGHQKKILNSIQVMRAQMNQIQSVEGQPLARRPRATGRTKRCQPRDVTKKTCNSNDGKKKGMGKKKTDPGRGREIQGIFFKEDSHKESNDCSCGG

Row | Sequence | phosphorylation enrichment (EPHB2) | phosphorylation enrichment (Fyn) | phosphorylation enrichment (c-Abl (mouse)) | phosphorylation enrichment (Fer (mouse)) | phosphorylation enrichment (Jak2) | phosphorylation enrichment (AncSZ) | phosphorylation enrichment (MERTK) | phosphorylation enrichment (Fes) | phosphorylation enrichment (FGFR3) | phosphorylation enrichment (c-Src) | phosphorylation enrichment (FGFR1) | phosphorylation enrichment (Hck) | phosphorylation enrichment (EPHB1) | SH2 binding enrichment (c-Src SH2) | SH2 binding enrichment (SHP2-C SH2) | SH2 binding enrichment (Grb2 SH2)
1 | FGSVMYEFVGK [SLC18A1_Y251] | 3.28 | 2.57 | 1.3 | 15.1 | 1.38 | 2.6 | 11.1 | 1.76 | 1.35 | 3.48 | 1.35 | 8.76 | 5.8 | 0.591 | 0.445 | 0.684
2 | MSRDVYSIDYY [NTRK2_Y702_T704I] | 1.73 | 8.72 | 0.538 | 1.22 | 0.825 | 1.54 | 7.16 | 0.9 | 3.12 | 6.79 | 4.29 | 4 | 1.47 | 1.34 | 0.804 | 0.918
3 | MPQNEYIELHC [NSA2_Y6_R11C] | 0.862 | 0.615 | 0.658 | 0.557 | 0.939 | 1.39 | 0.478 | 1.2 | 2.58 | 0.625 | 3.95 | 0.626 | 1.2 | 0.683 | 0.782 | 1.06
4 | VNTTLYEKFTF [TEK_Y1108_YF] | 0.748 | 2.48 | 0.976 | 8.38 | 0.891 | 0.886 | 4.71 | 0.989 | 0.677 | 2.89 | 0.456 | 4.13 | 1.1 | 0.882 | 0.927 | 0.95
5 | KAPVDYIRKLQ [MITF_Y360_S357P] | 0.436 | 0.338 | 0.475 | 0.365 | 0.576 | 0.547 | 0.399 | 0.616 | 0.423 | 0.406 | 0.328 | 0.346 | 0.416 | 0.489 | 0.621 | 0.912
6 | GLAKEYTDPET [CSNK1G2_Y195_I196T] | 0.736 | 0.634 | 0.662 | 0.398 | 1.9 | 1.28 | 0.473 | 1.07 | 0.92 | 0.339 | 0.323 | 0.579 | 0.494 | 1.1 | 0.671 | 0.873
7 | NVFGNYNNQSS [HNRNPA1_Y318_D314V] | 0.467 | 0.315 | 0.352 | 0.448 | 0.489 | 0.475 | 0.289 | 0.537 | 0.546 | 0.293 | 0.399 | 0.424 | 0.421 | 0.397 | 0.508 | 0.78
8 | QRKRAYVEIEY [MAK16_Y282] | 0.463 | 0.585 | 2.01 | 0.441 | 0.73 | 0.696 | 0.416 | 0.752 | 0.663 | 0.68 | 0.623 | 0.672 | 0.362 | 4.61 | 0.718 | 0.675
9 | SSLMKYQQNVS [EGFEM1P_Y160_P157L] | 0.46 | 0.386 | 0.374 | 0.324 | 0.422 | 0.491 | 0.343 | 0.571 | 0.536 | 0.363 | 0.321 | 0.426 | 0.416 | 0.398 | 0.723 | 0.783
10 | GCRSKYVGLWG [KCNQ1_Y184] | 0.456 | 0.38 | 0.511 | 0.408 | 0.605 | 0.61 | 0.463 | 0.708 | 0.506 | 0.452 | 0.432 | 0.363 | 0.41 | 0.779 | 1.05 | 1.01
11 | GGCQEYTGAPY [NAXD_Y85] | 0.587 | 0.525 | 0.699 | 0.524 | 0.83 | 1.35 | 0.409 | 1.06 | 0.843 | 0.52 | 0.627 | 0.577 | 0.636 | 0.608 | 0.748 | 0.935
12 | SERNNYSRVAN [CWC22_Y797] | 0.59 | 0.347 | 0.51 | 0.422 | 0.461 | 0.501 | 0.391 | 0.557 | 0.456 | 0.356 | 0.435 | 0.382 | 0.503 | 1.46 | 5.32 | 0.747
13 | LVKDGYQMAQP [CSF1R_Y873] | 0.392 | 0.357 | 0.691 | 0.462 | 0.512 | 0.609 | 0.32 | 0.723 | 0.527 | 0.396 | 0.45 | 0.499 | 0.39 | 0.634 | 1.01 | 0.874
14 | SVTCTYSPDLN [TP53_Y126_A129D] | 0.71 | 0.502 | 0.915 | 0.629 | 1.31 | 1.5 | 0.437 | 1.71 | 0.985 | 0.563 | 0.533 | 0.583 | 0.757 | 0.471 | 0.856 | 0.89
15 | EKKDIYKAGEQ [CFH_Y1008_V1007I] | 0.424 | 0.341 | 0.5 | 0.362 | 0.488 | 0.493 | 0.362 | 0.696 | 0.364 | 0.431 | 0.327 | 0.373 | 0.353 | 0.365 | 0.648 | 0.826
16 | FRDMDYRSFPR [RBM10_Y41_YF] | 0.492 | 0.424 | 0.485 | 0.346 | 0.58 | 0.694 | 0.446 | 0.864 | 0.482 | 0.4 | 0.473 | 0.477 | 0.435 | 0.543 | 0.726 | 1.01
17 | IIRFNYLLDVL [FGFR4_Y237_S232I_YF] | 0.478 | 0.513 | 0.996 | 0.47 | 0.89 | 1.2 | 0.465 | 1.31 | 0.763 | 0.525 | 0.809 | 0.522 | 0.688 | 1.13 | 2.19 | 2.13

Row | Sequence | phosphorylation enrichment (EPHB2) | phosphorylation enrichment (Fyn) | phosphorylation enrichment (c-Abl (mouse)) | phosphorylation enrichment (Fer (mouse)) | phosphorylation enrichment (Jak2) | phosphorylation enrichment (AncSZ) | phosphorylation enrichment (MERTK) | phosphorylation enrichment (Fes) | phosphorylation enrichment (FGFR3) | phosphorylation enrichment (c-Src) | phosphorylation enrichment (FGFR1) | phosphorylation enrichment (Hck) | phosphorylation enrichment (EPHB1) | SH2 binding enrichment (c-Src SH2) | SH2 binding enrichment (SHP2-C SH2) | SH2 binding enrichment (Grb2 SH2)
18 | KPNMNYDKLSW [FLI1_Y332_R337W] | 0.893 | 0.486 | 0.41 | 0.555 | 0.746 | 0.751 | 0.481 | 0.741 | 0.59 | 0.446 | 0.428 | 0.661 | 0.644 | 10.2 | 1.5 | 0.967
19 | EWCSPYGLTPR [GRIN3B_Y601_R598C] | 0.569 | 1.76 | 0.734 | 1.2 | 0.778 | 0.815 | 1.01 | 1.02 | 0.613 | 3.91 | 0.474 | 1.04 | 0.556 | 0.535 | 0.629 | 0.644
20 | RLQEDYDHSYY [ESD_Y258_G257D] | 0.811 | 0.824 | 0.943 | 0.572 | 1.56 | 1.78 | 0.754 | 1.55 | 1.03 | 1.06 | 0.923 | 0.781 | 0.814 | 1.16 | 0.741 | 0.932
21 | LLKAKYELLNA [POLR3A_Y714] | 0.491 | 0.466 | 0.544 | 0.423 | 0.707 | 0.582 | 0.418 | 0.614 | 0.493 | 0.405 | 0.423 | 0.496 | 0.454 | 1.95 | 0.444 | 0.964
22 | KKMKRYHVGKV [HARS2_Y151] | 0.313 | 0.349 | 0.482 | 0.293 | 0.554 | 0.466 | 0.43 | 0.514 | 0.486 | 0.45 | 0.298 | 0.341 | 0.492 | 1.12 | 1.36 | 1.14
23 | IRQDHYESLKE [MTR_Y921] | 0.482 | 0.494 | 0.56 | 0.483 | 0.733 | 0.755 | 0.509 | 0.873 | 0.693 | 0.48 | 0.45 | 0.594 | 0.529 | 5.75 | 0.771 | 0.961
24 | EKSREYDRLYE [PIK3R1_Y463] | 0.68 | 0.708 | 0.938 | 0.711 | 0.828 | 1.32 | 0.597 | 1.09 | 0.706 | 0.587 | 0.61 | 0.944 | 0.663 | 16.9 | 0.612 | 0.966
25 | LDFNEYFRDLN [HPRT1_Y198_YF] | 0.461 | 0.465 | 0.606 | 0.382 | 0.998 | 1.24 | 0.423 | 1.15 | 0.697 | 0.473 | 0.513 | 0.486 | 0.442 | 0.552 | 0.604 | 1.01
26 | MSSHHYDFKKF [ZNF445_Y428_YF] | 0.311 | 0.384 | 0.39 | 0.308 | 0.382 | 0.466 | 0.376 | 0.462 | 0.346 | 0.415 | 0.339 | 0.362 | 0.533 | 0.485 | 0.544 | 0.784
27 | RRRLIYRCQVG [NR2E3_Y81] | 0.983 | 0.915 | 0.697 | 0.587 | 0.679 | 0.776 | 0.735 | 1.05 | 0.601 | 0.556 | 0.854 | 0.884 | 0.76 | 0.286 | 0.566 | 0.727
28 | FTGDIYSSSNL [LZTR1_Y141_N143S_YF] | 1.03 | 5.8 | 2.35 | 2.31 | 0.588 | 0.748 | 1.7 | 0.652 | 0.588 | 4.35 | 0.494 | 5.66 | 0.782 | 0.476 | 0.567 | 0.793
29 | KILPEYLSNWT [AIFM1_Y347] | 0.513 | 0.463 | 0.677 | 0.424 | 0.983 | 0.995 | 0.509 | 0.915 | 0.673 | 0.503 | 0.543 | 0.481 | 0.428 | 0.691 | 0.873 | 1.03
30 | FPDFVYKRIKA [DPYSL2_Y479] | 0.468 | 0.494 | 0.362 | 0.424 | 0.793 | 0.682 | 0.377 | 0.773 | 0.543 | 0.344 | 0.495 | 0.443 | 0.421 | 0.41 | 0.622 | 0.79
31 | SEHLTYLEFKS [RASGRP1_Y215] | 0.838 | 6.61 | 1.09 | 0.62 | 1.33 | 1.41 | 0.459 | 1.58 | 1.16 | 5.56 | 0.729 | 5.7 | 1.02 | 0.409 | 0.52 | 0.716
32 | QGIYGYHHYMQ [UFSP2_Y287] | 8.11 | 10.6 | 5.12 | 13.8 | 1.36 | 1.6 | 10.4 | 1.31 | 1.52 | 8.3 | 1.32 | 8.27 | 3.8 | 2.15 | 1.67 | 1.03
33 | IEKLPYIDKWF [CPS1_Y872_T871P] | 0.482 | 0.368 | 0.574 | 0.333 | 0.833 | 0.953 | 0.359 | 1.01 | 0.567 | 0.479 | 0.51 | 0.456 | 0.472 | 0.642 | 0.679 | 0.782
